Key:
Type in all cases: cell-based
293T-rtTA3G-CymR cells [1] = experiment: Luciferase fluorescence intensity assay, transient transfection, both DOX and Cumate vs DOX alone (Example 2); settings: for induced expression level: transient transfection, 24 hours after transfection
Excerpt: The experiment described in the present Example is to study and verify the effect of the position and copy number of the CuO operator in the Tet-On and Cumate complex response element on the induced expression level and non-induced leaky expression level of the complex response element, and to optimize and confirm the optimal position and copy number of the CuO operator. In the present Example, based on the 7×TetO sequence in the TRE3G response element and the minimal promoter sequence #1 (SEQ ID NO: 25), the response elements TRE3GCuO14 (10-317 bp in SEQ ID NO: 8), TRE3GCuO30 (SEQ ID NO: 28), TRE3GCuO50 (SEQ ID NO: 23) and TRE3GCuO100 (10-403 bp in SEQ ID NO: 10) were designed by linking a CuO operator sequence at 10 bp to 100 bp downstream of the TATA box (at 14 bp, 30 bp, 50 bp and 100 bp downstream of the TATA box, respectively), and a Luciferase reporter gene sequence was linked downstream of the 3′ end of the above response elements, to construct plasmids 18BF251, 18BF252, 18BF235 and 18BF253. Further, in order to study the effect of multiple copies of CuO operators, 2, 4 and 6 copies of CuO operator sequences were respectively inserted at 50 bp downstream of the TATA box, to design the response elements TRE3GCuO2x (10-411 bp in SEQ ID NO: 11), TRE3GCuO4x (10-527 bp in SEQ ID NO: 12) and TRE3GCuO6x (10-643 bp in SEQ ID NO: 13), and then a Luciferase reporter gene sequence was linked downstream of 3′ end of the above response elements to construct plasmids 18BF254, 18BF255 and 18BF256. In 293T-rtTA3G-CymR cells stably expressing rtTA3G and CymR genes, the above plasmids were transiently transfected, and the optimal position and number of CuO operator were validated by measuring the luciferase […] value of samples added with both DOX and Cumate inducers and that of the control added with the DOX inducer only. The specific experimental methods were as follows:
(§1) 293T cells were seeded at 1.5E+06 cells per 60 mm culture dish, and cultured in DMEM (Sigam, D6429) complete medium supplemented with 10% FBS (ExCell, 11H116) at 37° C. and 5% CO 2. After 24 hours of culture, transfection was carried out according to the PEI method. During transfection, 500 μL of transfection reagent which contained 5.5 ug of total plasmid was added to each 60 mm culture dish, and the mass ratio of total plasmid to PEI MAX (Polysciences, 24765-1) was 1:4. The transfection was carried out according to the PEI method, wherein the amount of total plasmid was 5.5 μg. The transfection was performed with plasmids 19BF074:18BF019 at a molar ratio of 10:1 to obtain 293T-rtTAadv-CymR cells; and the transfection was performed with plasmids 19BF075:18BF019 at a molar ratio of 10:1 to obtain 293T-rtTA3G-CymR cells. The plasmid and PEI MAX were mixed uniformly, and then put into a culture dish after standing for 15 minutes. 3 hours after transfection, the medium was changed to a complete DMEM medium, and the transfection operation was completed. After 24 hours of transfection, the cells were digested with trypsin and all seeded in a 100 mm culture dish (Corning, 430167), and 200 μg/ml of hygromycin (Sangon Biotech A600230-0001) drug screening was performed for at least three passages. After the growth of cells under the pressure of drug screening was consistent with that of the original 293T cells, the following experiments were performed.
The 293T-rtTA3G-CymR cells were seeded in a 96-well plate (Corning 3916) at 2.5E+04 cells per well, and the medium was 100 microliters of DMEM complete medium. […]

293T-rtTA3G-CymR cells [2] = experiment: as above; settings: for induced expression level as % of the induced expression level for TREadv response element: 1 ug/ml DOX and 200 ug/ml Cumate; for ratio of induced/leaky expression level based on Cumate inducible expression system, relative to that for the TREadv response element: DOX and Cumate vs DOX only
293T-rtTA3G-CymR cells [3] = experiment: Luciferase assay, transient transfection, DOX and Cumate vs no inducer (Example 3), rtTA3G cells; settings: 293T-rtTA3G-CymR cells
Description: as §1
(§2) In Tet-On inducible expression system, the induced transcription activity and the leaky transcription activity were comprehensively affected by the TetO operator linking sequence of the TRE response element and the minimal promoter sequence, as well as different mutants of the transactivator rtTA. In addition, the transport and stability of messenger ribonucleic acid may be enhanced by linking a spliceable intron sequence downstream of the 3′ end of the response element and upstream of the 5′ end of the regulated nucleic acid fragment of interest, but the induced transcription activity and leaky transcription activity of response element of the inducible expression system may also be affected. Based on this, the optimal design scheme of complex response element was determined in this Example based on the induced expression level and the ratio of induced/leaky expression level of Luciferase gene under the combination of the following conditions: (1) Tet-On and Cumate complex response elements TREadvCuO and TRE3GCuO designed based on the TREadv and TRE3G response element sequences; (2) whether an intron was linked; (3) being regulated by the transactivator rtTAadv or rtTA3G. A total of 8 design schemes were compared in this Example: TREadv (18BF232), TREadvCuO (18BF233), TRE3G (18BF234), TRE3GCuO (18BF235), TREadv-BGI (18BF240, wherein the response element was TREadv, and a human β-globulin intron was linked between the 3′ end of the response element and the 5′ end of the Luciferase gene), TREadvCuO-BGI (18BF241, wherein the response element was TREadvCuO, and a human β-globulin intron was linked between the 3′ end of the response element and the 5′ end of the Luciferase gene), TRE3G-BGI (18BF236, wherein the response element was TRE3G, and a human β-globulin intron was linked between the 3′ end of the response element and the 5′ end of the Luciferase gene) and TRE3GCuO-BGI (18BF237, wherein the response element was TRE3GCuO, and a human β-globulin intron was linked between the 3′ end of the response element and the 5′ end of the Luciferase gene). The promoter CMV-BGI (18BF229, wherein the promoter was CMV, and a human β-globulin intron was linked between the 3′ end of the CMV promoter and the 5′ end of the Luciferase gene) was used as a positive control. […]

293T-rtTAadv-CymR cells = experiment: Luciferase assay, transient transfection, DOX and Cumate vs no inducer (Example 3), rtTAadv cells
Description: as §1, §2

[4] = 1 ug/ml DOX and 200 ug/ml Cumate

B1: TRE3GCuO30: Tet-On (TRE3G) and Cumate complex response element, CuO 30 bp behind the TATA box (SEQ ID NO: 28) (nucleic acid)
DNA: TCCCTATCAGTGATAGAGAACGTATGAAGAGTTTACTCCCTATCAGTGATAGAGAACGTATGCAGACTTTACTCCCTATCAGTGATAGAGAACGTATAAGGAGTTTACTCCCTATCAGTGATAGAGAACGTATGACCAGTTTACTCCCTATCAGTGATAGAGAACGTATCTACAGTTTACTCCCTATCAGTGATAGAGAACGTATATCCAGTTTACTCCCTATCAGTGATAGAGAACGTATTAGGCGTGTACGGTGGGCGCCTATAAAAGCAGAGCTCGTTTAGTGAACCGTCAGATACAAACAGACCAGATTGTCTGTTTGTT
modifications: TRE3GCuO30 response element sequence
induced expression level as % of the induced expression level of TRE3G response element (293T-rtTA3G-CymR cells [1]; [4]): 44.5%
ratio of induced/leaky expression level based on Cumate inducible expression system, relative to that of TRE3G response element (293T-rtTA3G-CymR cells [1]; DOX and Cumate vs DOX only): 4.21 times
induced expression level (293T-rtTA3G-CymR cells [1]; [4]): 3.06E+06 RLU

B2: TREadvCuO32: Tet-On (TREadv) and Cumate complex response element, CuO 32 bp behind the TATA box (SEQ ID NO: 29) (nucleic acid)
DNA: TCCCTATCAGTGATAGAGAACGTATGTCGAGTTTACTCCCTATCAGTGATAGAGAACGATGTCGAGTTTACTCCCTATCAGTGATAGAGAACGTATGTCGAGTTTACTCCCTATCAGTGATAGAGAACGTATGTCGAGTTTACTCCCTATCAGTGATAGAGAACGTATGTCGAGTTTATCCCTATCAGTGATAGAGAACGTATGTCGAGTTTACTCCCTATCAGTGATAGAGAACGTATGTCGAGGTAGGCGTGTACGGTGGGAGGCCTATATAAGCAACCGGTGTTTAGTGAACCGTCAGATCTACAAACAGACCAGATTGTCTGTTTGTT
modifications: TREadvCuO32 response element sequence
induced expression level as % of the induced expression level for TREadv response element (293T-rtTA3G-CymR cells [2]): 37.8%
ratio of induced/leaky expression level based on Cumate inducible expression system, relative to that for the TREadv response element (293T-rtTA3G-CymR cells [2]): 4.97 times
induced expression level (293T-rtTA3G-CymR cells [1]; [4]): 3.26+06 RLU

B3: TREadvCuO: Tet-On (7xTetO of TREadv) and Cumate complex response element, CuO 52 bp behind the TATA box (SEQ ID NO: 30) (nucleic acid)
DNA: TCCCTATCAGTGATAGAGAACGTATGTCGAGTTTACTCCCTATCAGTGATAGAGAACGATGTCGAGTTTACTCCCTATCAGTGATAGAGAACGTATGTCGAGTTTACTCCCTATCAGTGATAGAGAACGTATGTCGAGTTTACTCCCTATCAGTGATAGAGAACGTATGTCGAGTTTATCCCTATCAGTGATAGAGAACGTATGTCGAGTTTACTCCCTATCAGTGATAGAGAACGTATGTCGAGGTAGGCGTGTACGGTGGGAGGCCTATATAAGCAACCGGTGTTTAGTGAACCGTCAGATCGCCTGGAGACGCCATCATAATACAAACAGACCAGATTGTCTGTTTGTT
modifications: TREadvCuO52 response element sequence
induced expression level as % of that of the single regulatory response element (293T-rtTA3G-CymR cells [3]; DOX and Cumate): 40.3%
induced/leaky expression ratio (293T-rtTA3G-CymR cells [3]; DOX and Cumate vs no inducer): 1915 times
induced expression level as % of the induced expression level for TREadv response element (293T-rtTA3G-CymR cells [2]): 53.4%
ratio of induced/leaky expression level based on Cumate inducible expression system, relative to that for the TREadv response element (293T-rtTA3G-CymR cells [2]): 3.23 times
induced expression level as % of that of the corresponding TRE3G or TREadv single regulatory response element (293T-rtTAadv-CymR cells; DOX and Cumate): 36.3%
induced/leaky expression ratio (293T-rtTAadv-CymR cells; DOX and Cumate vs no inducer): 1345 times
induced expression level (293T-rtTA3G-CymR cells [1]; [4]): 4.88E+06 RLU

Reference: patent publication US11680267B2, “Co-regulatory sequences based on tetracycline and Cumate” (Shenzhen Eureka Biotechnology Co., Ltd., priority 2020, dated 2023)
